The values below come from patent US20090048161A1.

Where no end group is shown, it is not given here. [ ]: non-standard residue; d: D form.

The target in the assay is IL-1R on freshly isolated rat thymocytes (rat) (UniProt Q02955). Put plainly: radioligand binding on freshly isolated rat thymocytes: displacement of 6 nM I^125-API-101.10 by increasing non-radioactive API-101.10 (printed as 'affinity').

As for [dR][dY][dT][dV][dE][dL][dA] (also: 125I-labelled form used as tracer, site not given here) [API-101.10], the Kd – broadly, the free concentration of one partner at which half of the binding sites on the other are occupied at equilibrium, for simple one-to-one binding – turned out to be 1000 nM.
